Data from patent US20230324404A1 (Takeda / Millennium, published 2023).
Residue numbers refer to the chain shown, from its start. Where two headings read alike, the source gives them in different places.

B1: Anti-ZIKV #7 (IgG2a kappa, Clone ZKA-64) (antibody, V domains shown)
VH: QVQLVQSGAEVKKPGASVKVSCKASGYTFTGYHIDWVRQARGQGLEWMGRINPNSGGTNYAQKFQGRVTMTRDTSISTAYMQLSRLRSDDSAVYYCARMSSSIWGFDHWGQGTLVTVSS
VL: EIVMTQSPATLSVSPGERATLSCRASQSVLINLAWYQQKPGQAPRLLIYGASSRATGIPARFSGSGSGTEFTLTISSLQSEDFAVYYCQQYNDWPPITFGQGTRLEIK
B2: Anti-ZIKV #11 (Clone 11-3) (antibody, V domains shown)
VH: QEQLVESGGGLVQPEGSLTITCTGSGFSFSSRFYMCWVRQAPGKGLEWIACIYGGSSGSTYYASWAKGRFTISKTSSTTVTLQISSLTAADTATYFCARGGSTAAAGFNLWGPGTLLTVSS
VL: DVVMTQTPASVSATVGGTVTIKCQASEDIYNLLAWYQQKPGQPPKLLIYYASTLASGVPSRFKGSGSGTEFTLTISDLECADAATYYCQCNDYGGTYVPNAFGGGTEVVVKG
B3: Anti-ZIKV #6 (IgG2c kappa, Clone ZV-67) (antibody, V domains shown)
VH: QAQLQQSGTGLARPGASVKLSCKASGYTFTSYGISWVTQRAGQGLEWIGVIYPRSGNTYYNEKFRGKATLTADKSSSSAYMELRGLTAEDSAVYFCARENYGSVYWGQGTTLTVSS
VL: DIVMTQSQKFMSTSVGDRVSITCKASQNVGTAVAWYQQKPGQSPKLLIYSASNRYTGVPDRFTGSGSGTDFTLTISNMQSEDLADYFCQQFSSYPYTFGGGTKLEIK
B4: Anti-ZIKV #5 (Clone 306-2) (antibody, V domains shown)
VH: QSLEESGGDLVKPGASLTLTCTASGFDFSDRYYMCWVRQAPGKGLEWIGCIYVGSGDTYYASWAKGRFTISRTSSTTVTLQMTRLTAADTATYFCARHPGTYFTLWGPGTLVTVSS
VL: DVVMTQTPSSVSAAVGGTVTINCQASQNIVNNLAWYQQRPGQPPKLLIYDTSTLASGVPSRFKGSGSGTEFTLTISDLECADAATYYCQTYYYYNKIINGFGGGTEVVVKG
B5: Anti-ZIKV #9 (Clone 181-4) (antibody)
heavy: QAQLEESGGDLVKPEGSLTLTCTASGFSFTDRHYMCWVRQAPGKGLEWIACVYPGSSGSTYYASWARGRFTISKTSSTTVTLRMTSLTAADTATYFCARSSYPDSSGYSYGMDLWGPGTLVTVSSGQPKAPSVFPLAPCCGDTPSSTVTLGCLVKGYLPEPVTVTWNSGTLTNGVRTFPSVRQSSGLYSLSSVVSVTSSSQPVTCNVAHPATNTKVDKTVAPSTCSKPTCPPPELLGGPSVFIFPPKPKDTLMISRTPEVTCVVVDVSQDDPEVQFTWYINNEQVRTARPPLREQQFNSTIRVVSTLPIAHQDWLRGKEFKCKVHNKALPAPIEKTISKARGQPLEPKVYTMGPPREELSSRSVSLTCMINGFYPSDISVEWEKNGKAEDNYKTTPAVLDSDGSYFLYSKLSVPTSEWQRGDVFTCSVMHEALHNHYTQKSISRSPGK
light: DIVMTQTPASVEAAVGGTVTIKCQASQNINSNLAWYQQKPGQRPKFLMYLTSKLASGVPSRFRGSGSGTQFTLTISDLECADAATYYCQTYYDISNYGYAFGGGTEVVVKGDPVAPTVLIFPPAADQVATGTVTIVCVANKYFPDVTVTWEVDGTTQTTGIENSKTPQNSADCTYNLSSTLTLTSTQYNSHKEYTCKVTQGTTSVVQSFNRGDC
B6: Anti-ZIKV #10 (Clone 329-2) (antibody)
heavy: B5 heavy
light: B5 light
B7: Anti-ZIKV #3 (Clone 270-12) (antibody, V domains shown)
VH: QAQLEESGGDLVKPEGSLTLTCTASGFSFTDRHYMCWVRQAPGKGLEWIACVYPGSSGSTYYASWARGRFTISKTSSTTVTLRMTSLTAADTATYFCARSSYPDSSGYSYGMDLWGPGTLVTVSS
VL: DIVMTQTPASVEAAVGGTVTIKCQASQDINSNLAWYQQKPGQRPKFLMYLTSKLASGVPSRFRGSGSGTQFTLTISDLECADAATYYCQTYYDISNYGYAFGGGTEVVVKG
B8: Anti-ZIKV #2 (Clone 242-3) (antibody, V domains shown)
VH: B7 VH with V38I
VL: B7 VL with D28N
B9: Anti-ZIKV #8 (Clone 260-2) (antibody)
heavy: B5 heavy with S124P
light: B5 light
B10: Anti-ZIKV #4 (Clone 289-3) (antibody, V domains shown)
VH: QEELEESGGDLVKPGASLTLTCKASGFSFSSGAYICWVRQAPGKGPEWIACIYTGDGRTYYANWAKRRFTISSSSSTTVALEMPSLTDADTATYFCARAIAVGAGYGVGNYFTLWGPGTLVTVSS
VL: DIVMTQTPSSVSAAVGGTVTINCHASENIYGYLSWYQQKPGQPPKLLIYKASTLASGVPSRFKGSGAGTQFTLTITALECADAATYYCQSYYTSSSNADGSENAFGGGTEVVVEG

Experiments:
[1] = target: T1, DENV1 VLP (strain Puerto Rico/US/BID-V853/1998) (Dengue virus serotype 1 strain Puerto …); assay: microsphere immunoassay, DENV1 VLP-coupled microspheres
T1 construct: also called dengue-1 virus like particle

[2] = target: T2, DENV3 VLP (strain Sri Lanka D3/H/IMTSSA-SRI/2000/1266) (Dengue virus serotype 3 strain Sri …); assay: microsphere immunoassay, DENV3 VLP-coupled microspheres
T2 construct: also called dengue-3 virus like particle

[3] = target: T3, ZIKV VLP (zika virus like particle, isolate Z1106033) (Zika virus isolate Z1106033 (Suriname, …, UniProt A0A024B7W1 123-794))
T3 construct: also called zika VLP; ZIKV VLPs

[4] = target: T4, DENV4 VLP (strain Dominica/814669/1981) (Dengue virus serotype 4 strain …, UniProt P09866 114-732); assay: microsphere immunoassay, DENV4 VLP-coupled microspheres
T4 construct: also called dengue-4 virus like particle

[5] = target: T3, ZIKV VLP (zika virus like particle, …); remark: listed apart in the source
[6] = target: T3, ZIKV VLP (zika virus like particle, …); remark: listed apart in the source
[7] = target: T5, DENV2 VLP (strain Thailand/16681/84) (Dengue virus serotype 2 strain …); assay: microsphere immunoassay, DENV2 VLP-coupled microspheres
T5 construct: also called dengue-2 virus like particle

[8] = target: T5, DENV2 VLP (strain Thailand/16681/84); assay: microsphere immunoassay, DENV2 VLP-coupled microspheres, 120 min incubation
[9] = target: T4, DENV4 VLP (strain Dominica/814669/1981); assay: microsphere immunoassay, DENV4 VLP-coupled microspheres, 120 min incubation
[10] = target: T1, DENV1 VLP (strain Puerto …); assay: microsphere immunoassay, DENV1 VLP-coupled microspheres, 120 min incubation
[11] = target: T2, DENV3 VLP (strain Sri Lanka …); assay: microsphere immunoassay, DENV3 VLP-coupled microspheres, 120 min incubation
[12] = target: rZIKV-EDIII-1 (recombinant 6xHis-SUMO-tagged ZIKV EDIII) (Zika virus strain H/PF/2013, UniProt A0A024B7W1 589-697); assay: Bio-layer interferometry (Octet)

Row | Binder | binding result [1] | binding result [2] | EC50 [3] | binding result [4] | EC50 [5] | EC25 [6] | EC50 [6] | binding result [7] | binding result [8] | binding result [9] | binding result [10] | binding result [11] | binding result [12]
1 | B1 | no binding (tested: 0.001 to 20 µg/mL) | no binding (tested: 0.001 to 20 µg/mL) | 0.423 µg/mL | no binding (tested: 0.001 to 20 µg/mL) | 1.18 µg/mL | 0.0296 µg/mL | 0.101 µg/mL | no binding (tested: 0.001 to 20 µg/mL) | – | – | – | – | –
2 | B2 | – | – | – | – | – | 0.0032 µg/mL | 0.0105 µg/mL | – | no binding (tested: 0.001 to 20 µg/mL) | no binding (tested: 0.001 to 20 µg/mL) | no binding (tested: 0.001 to 20 µg/mL) | no binding (tested: 0.001 to 20 µg/mL) | –
3 | B3 | no binding (tested: 0.001 to 20 µg/mL) | no binding (tested: 0.001 to 20 µg/mL) | 0.134 µg/mL | no binding (tested: 0.001 to 20 µg/mL) | 0.677 µg/mL | 0.0081 µg/mL | 0.0273 µg/mL | no binding (tested: 0.001 to 20 µg/mL) | – | – | – | – | –
4 | B4 | no binding (tested: 0.001 to 20 µg/mL) | no binding (tested: 0.001 to 20 µg/mL) | 0.066 µg/mL | no binding (tested: 0.001 to 20 µg/mL) | 0.256 µg/mL | 0.0047 µg/mL | 0.0158 µg/mL | no binding (tested: 0.001 to 20 µg/mL) | – | – | – | – | –
5 | B5 | – | – | – | – | – | 0.0059 µg/mL | 0.0156 µg/mL | – | no binding (tested: 0.001 to 20 µg/mL) | no binding (tested: 0.001 to 20 µg/mL) | no binding (tested: 0.001 to 20 µg/mL) | no binding (tested: 0.001 to 20 µg/mL) | –
6 | B6 | – | – | – | – | – | 0.0043 µg/mL | 0.0145 µg/mL | – | no binding (tested: 0.001 to 20 µg/mL) | no binding (tested: 0.001 to 20 µg/mL) | no binding (tested: 0.001 to 20 µg/mL) | no binding (tested: 0.001 to 20 µg/mL) | –
7 | B7 | no binding (tested: 0.001 to 20 µg/mL) | no binding (tested: 0.001 to 20 µg/mL) | 0.061 µg/mL | no binding (tested: 0.001 to 20 µg/mL) | 0.181 µg/mL | 0.0045 µg/mL | 0.0144 µg/mL | no binding (tested: 0.001 to 20 µg/mL) | – | – | – | – | –
8 | B8 | no binding (tested: 0.001 to 20 µg/mL) | no binding (tested: 0.001 to 20 µg/mL) | 0.044 µg/mL | no binding (tested: 0.001 to 20 µg/mL) | 0.14 µg/mL | 0.0024 µg/mL | 0.008 µg/mL | no binding (tested: 0.001 to 20 µg/mL) | – | – | – | – | –
9 | B9 | – | – | – | – | – | 0.0075 µg/mL | 0.0252 µg/mL | – | no binding (tested: 0.001 to 20 µg/mL) | no binding (tested: 0.001 to 20 µg/mL) | no binding (tested: 0.001 to 20 µg/mL) | no binding (tested: 0.001 to 20 µg/mL) | –
10 | B10 | no binding (tested: 0.001 to 20 µg/mL) | no binding (tested: 0.001 to 20 µg/mL) | – | no binding (tested: 0.001 to 20 µg/mL) | – | – | – | no binding (tested: 0.001 to 20 µg/mL) | – | – | – | – | binds
